US20190049459A1 (TOKYO INSTITUTE OF TECHNOLOGY, published 2019)

Columns and labels:
[1] = biological target: T1, DNA-PKcs (human, UniProt P78527 1-4128); test: anti-FLAG immunoprecipitation from HEK 293 T lysate, SDS-PAGE; band identified by mass spectrometry (Table 1)
T1 construct: Endogenous protein co-precipitated from HEK 293 T lysate and identified by mass spectrometry; also called DNK-PKcs; PRKDC

[2] = biological target: T2, BIP (human, UniProt P11021 19-654); test: as above
T2 construct: Endogenous protein co-precipitated from HEK 293 T lysate; also called GRP78
T2 sequence (P11021 19-654 limits assumed): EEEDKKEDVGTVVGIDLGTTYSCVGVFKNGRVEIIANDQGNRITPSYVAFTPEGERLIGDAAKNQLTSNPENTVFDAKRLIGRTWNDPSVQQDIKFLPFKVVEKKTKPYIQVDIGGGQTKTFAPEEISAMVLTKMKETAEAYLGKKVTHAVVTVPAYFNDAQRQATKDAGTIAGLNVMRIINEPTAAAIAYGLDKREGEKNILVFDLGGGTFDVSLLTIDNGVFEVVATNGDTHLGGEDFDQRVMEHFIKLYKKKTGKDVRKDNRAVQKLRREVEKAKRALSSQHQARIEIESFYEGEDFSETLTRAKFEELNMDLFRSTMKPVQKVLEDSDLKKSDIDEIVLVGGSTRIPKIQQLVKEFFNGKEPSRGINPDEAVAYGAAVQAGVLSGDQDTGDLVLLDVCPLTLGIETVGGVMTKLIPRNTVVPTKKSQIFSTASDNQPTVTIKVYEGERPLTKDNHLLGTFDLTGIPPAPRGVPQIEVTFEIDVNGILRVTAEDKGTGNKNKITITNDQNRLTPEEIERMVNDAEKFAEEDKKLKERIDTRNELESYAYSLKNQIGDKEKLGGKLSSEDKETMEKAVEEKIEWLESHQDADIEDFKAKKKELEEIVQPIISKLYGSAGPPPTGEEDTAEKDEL

[3] = biological target: T3, ANT2-HA (human, UniProt P05141 1-298); test: co-expression of ANT2-HA and FLAG-tagged uORF44 in HEK 293 T cells, immunoprecipitation by one tag, western blot by the other tag
T3 construct: Co-expressed with FLAG-tagged uORF44 in HEK 293 T cells; not shown: HA tag fused to the subtype
T3 sequence (looked up): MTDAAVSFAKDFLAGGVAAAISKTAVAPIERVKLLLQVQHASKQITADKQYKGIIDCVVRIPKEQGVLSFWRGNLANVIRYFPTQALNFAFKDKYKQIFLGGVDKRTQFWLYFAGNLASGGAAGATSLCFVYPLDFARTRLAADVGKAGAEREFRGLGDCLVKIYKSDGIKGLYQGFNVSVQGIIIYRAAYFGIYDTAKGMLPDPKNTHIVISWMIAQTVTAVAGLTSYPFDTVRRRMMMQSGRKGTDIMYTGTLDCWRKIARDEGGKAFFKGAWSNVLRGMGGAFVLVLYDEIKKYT
Method: The expression vector was transfected into HEK 293 T cells cultured in a 10 cm culture dish using Opt-MEM (Life Technologies) and FuGENE-HD (Promega). After 48 hours of transfection, the cells were washed with PBS and dissolved using 1 mL of lysis buffer (20 m Tris-HCl pH 7.5, 150 mM NaCl, 0.5% NP 40, 1×Complete EDTA free (Roche) 10 mM Glycerol 2-phosphate, 1 mM NaVO4) and allowed to stand on ice for 20 minutes. Thereafter, the cells were centrifuged at 4° C., 21,130×g for 30 minutes, and the supernatant was used for immunoprecipitation. 50 μL of anti-[…] antibody beads (Wako, 016-22784) or 50 μL of Monoclonal Anti-HA-Agarose (Sigma, A 2095) was used in the immunoprecipitation. The supernatant was mixed with antibody beads lysate, and slowly mixed at 4° C. for 1 hour. After completion of the antigen-antibody reaction, it was washed 3 times with 1 mL of a lysis buffer, and then the protein was eluted with 50 μL 1×SDS sample buffer. The eluted sample was subjected to electrophoresis by SDS-PAGE followed by western blotting or SYPRO Ruby staining. The western blotting was performed as described in paragraph “(5) Western blotting.” The SYPRO Ruby staining was performed using SYPRO Ruby protein gel stain (Life Technologies, S 12000), in accordance with a product manual. […]

Measured: binding result

T1 sequence (P78527 whole entry): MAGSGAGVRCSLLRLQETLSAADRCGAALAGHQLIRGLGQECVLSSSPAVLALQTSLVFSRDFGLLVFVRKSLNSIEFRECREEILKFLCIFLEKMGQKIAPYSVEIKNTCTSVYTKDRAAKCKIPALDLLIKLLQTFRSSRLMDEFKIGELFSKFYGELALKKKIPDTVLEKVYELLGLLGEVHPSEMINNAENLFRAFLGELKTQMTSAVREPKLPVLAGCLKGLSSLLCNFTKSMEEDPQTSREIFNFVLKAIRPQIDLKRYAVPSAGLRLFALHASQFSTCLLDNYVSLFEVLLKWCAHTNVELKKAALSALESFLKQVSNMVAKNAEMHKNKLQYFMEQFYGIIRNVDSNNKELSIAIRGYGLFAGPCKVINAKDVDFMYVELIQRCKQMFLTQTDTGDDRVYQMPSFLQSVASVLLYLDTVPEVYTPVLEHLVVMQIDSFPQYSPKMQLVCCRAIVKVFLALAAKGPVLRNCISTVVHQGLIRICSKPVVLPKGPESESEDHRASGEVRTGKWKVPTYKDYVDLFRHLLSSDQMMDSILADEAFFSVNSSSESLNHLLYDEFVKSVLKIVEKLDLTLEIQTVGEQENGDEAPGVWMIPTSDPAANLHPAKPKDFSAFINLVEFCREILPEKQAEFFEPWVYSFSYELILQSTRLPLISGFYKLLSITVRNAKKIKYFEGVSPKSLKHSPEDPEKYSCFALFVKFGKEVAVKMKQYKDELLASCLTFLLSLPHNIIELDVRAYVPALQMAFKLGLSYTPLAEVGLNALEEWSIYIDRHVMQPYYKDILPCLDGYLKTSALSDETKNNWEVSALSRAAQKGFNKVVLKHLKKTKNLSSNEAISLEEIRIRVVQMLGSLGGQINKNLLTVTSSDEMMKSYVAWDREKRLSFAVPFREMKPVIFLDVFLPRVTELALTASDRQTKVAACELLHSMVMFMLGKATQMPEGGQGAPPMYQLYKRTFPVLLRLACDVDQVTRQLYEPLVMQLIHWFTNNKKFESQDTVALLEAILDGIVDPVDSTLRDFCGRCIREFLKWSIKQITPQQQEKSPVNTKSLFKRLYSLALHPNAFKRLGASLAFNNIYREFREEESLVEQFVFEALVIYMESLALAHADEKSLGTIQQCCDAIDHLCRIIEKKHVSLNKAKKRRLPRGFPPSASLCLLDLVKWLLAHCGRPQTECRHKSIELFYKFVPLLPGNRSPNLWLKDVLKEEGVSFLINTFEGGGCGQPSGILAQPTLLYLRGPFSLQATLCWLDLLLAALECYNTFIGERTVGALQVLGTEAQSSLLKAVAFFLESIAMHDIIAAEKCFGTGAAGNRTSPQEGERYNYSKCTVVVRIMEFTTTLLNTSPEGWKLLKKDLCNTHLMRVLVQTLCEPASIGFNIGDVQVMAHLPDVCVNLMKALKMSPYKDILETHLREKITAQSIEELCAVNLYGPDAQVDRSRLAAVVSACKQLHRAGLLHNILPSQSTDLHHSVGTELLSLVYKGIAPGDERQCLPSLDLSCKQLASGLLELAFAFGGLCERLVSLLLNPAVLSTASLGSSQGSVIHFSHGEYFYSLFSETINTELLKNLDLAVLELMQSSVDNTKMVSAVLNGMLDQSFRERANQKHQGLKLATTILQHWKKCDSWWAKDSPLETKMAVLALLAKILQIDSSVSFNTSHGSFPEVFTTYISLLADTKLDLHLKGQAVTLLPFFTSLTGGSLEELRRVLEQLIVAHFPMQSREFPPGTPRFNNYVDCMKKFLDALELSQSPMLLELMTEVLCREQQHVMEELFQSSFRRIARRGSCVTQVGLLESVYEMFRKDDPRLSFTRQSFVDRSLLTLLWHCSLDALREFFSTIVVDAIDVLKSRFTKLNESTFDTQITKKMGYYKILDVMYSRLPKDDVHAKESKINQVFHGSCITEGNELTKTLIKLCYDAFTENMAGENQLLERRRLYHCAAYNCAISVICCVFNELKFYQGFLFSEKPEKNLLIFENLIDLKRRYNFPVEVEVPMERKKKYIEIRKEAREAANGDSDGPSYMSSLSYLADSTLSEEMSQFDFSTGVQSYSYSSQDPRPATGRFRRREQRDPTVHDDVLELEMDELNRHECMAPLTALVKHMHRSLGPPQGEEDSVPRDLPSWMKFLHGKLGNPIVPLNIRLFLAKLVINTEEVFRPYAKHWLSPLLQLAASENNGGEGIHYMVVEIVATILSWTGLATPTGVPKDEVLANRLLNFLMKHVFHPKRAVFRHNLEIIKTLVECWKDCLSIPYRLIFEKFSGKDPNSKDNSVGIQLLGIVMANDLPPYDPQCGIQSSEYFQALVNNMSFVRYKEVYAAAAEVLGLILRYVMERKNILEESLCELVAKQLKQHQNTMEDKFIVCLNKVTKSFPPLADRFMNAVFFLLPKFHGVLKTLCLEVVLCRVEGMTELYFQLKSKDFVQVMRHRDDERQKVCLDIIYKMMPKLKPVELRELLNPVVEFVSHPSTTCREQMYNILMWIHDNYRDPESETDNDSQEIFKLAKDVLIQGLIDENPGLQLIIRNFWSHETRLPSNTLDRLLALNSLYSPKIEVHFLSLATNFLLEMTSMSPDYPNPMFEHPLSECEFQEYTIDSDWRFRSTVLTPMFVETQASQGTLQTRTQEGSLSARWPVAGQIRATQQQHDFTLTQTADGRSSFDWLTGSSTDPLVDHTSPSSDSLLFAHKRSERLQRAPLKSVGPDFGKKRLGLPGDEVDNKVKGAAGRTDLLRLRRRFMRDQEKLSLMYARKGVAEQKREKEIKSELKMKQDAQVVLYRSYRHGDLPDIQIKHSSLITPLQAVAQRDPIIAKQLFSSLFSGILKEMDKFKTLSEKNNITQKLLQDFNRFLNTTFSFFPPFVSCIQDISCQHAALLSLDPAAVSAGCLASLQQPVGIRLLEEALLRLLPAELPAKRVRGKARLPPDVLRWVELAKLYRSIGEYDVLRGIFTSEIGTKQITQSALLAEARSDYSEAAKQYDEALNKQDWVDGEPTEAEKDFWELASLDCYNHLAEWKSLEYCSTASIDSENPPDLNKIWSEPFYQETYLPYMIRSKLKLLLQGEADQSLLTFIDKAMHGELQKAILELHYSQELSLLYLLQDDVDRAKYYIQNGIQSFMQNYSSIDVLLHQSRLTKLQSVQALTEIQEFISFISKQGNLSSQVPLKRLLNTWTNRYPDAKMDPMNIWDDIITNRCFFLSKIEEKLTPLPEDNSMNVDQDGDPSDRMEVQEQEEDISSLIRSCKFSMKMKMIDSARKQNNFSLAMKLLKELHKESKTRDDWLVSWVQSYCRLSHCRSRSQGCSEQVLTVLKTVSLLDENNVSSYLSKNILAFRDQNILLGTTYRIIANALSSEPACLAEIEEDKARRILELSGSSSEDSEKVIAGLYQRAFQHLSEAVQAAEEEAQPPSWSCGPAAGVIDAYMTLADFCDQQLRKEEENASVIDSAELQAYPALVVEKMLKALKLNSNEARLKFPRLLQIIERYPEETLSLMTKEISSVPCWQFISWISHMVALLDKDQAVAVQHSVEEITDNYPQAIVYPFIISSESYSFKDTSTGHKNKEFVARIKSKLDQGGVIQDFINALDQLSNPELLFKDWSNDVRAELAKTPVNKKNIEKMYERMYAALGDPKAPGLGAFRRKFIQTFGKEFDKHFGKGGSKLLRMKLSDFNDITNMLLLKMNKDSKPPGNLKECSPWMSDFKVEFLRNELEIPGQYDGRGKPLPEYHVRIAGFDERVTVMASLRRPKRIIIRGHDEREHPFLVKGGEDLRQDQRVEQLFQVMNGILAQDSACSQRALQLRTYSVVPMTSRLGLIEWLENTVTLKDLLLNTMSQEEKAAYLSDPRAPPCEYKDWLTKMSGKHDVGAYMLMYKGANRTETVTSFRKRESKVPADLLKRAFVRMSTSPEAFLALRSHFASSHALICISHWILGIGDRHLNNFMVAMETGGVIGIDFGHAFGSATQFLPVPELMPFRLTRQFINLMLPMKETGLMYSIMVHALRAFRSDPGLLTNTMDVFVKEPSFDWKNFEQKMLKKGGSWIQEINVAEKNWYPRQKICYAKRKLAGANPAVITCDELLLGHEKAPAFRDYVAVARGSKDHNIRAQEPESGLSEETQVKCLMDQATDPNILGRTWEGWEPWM

B1: FLAG-tagged uORF44p (protein derived from uORF44, an upstream ORF in the mRNA of ARHGEF9) (other, not shown: small tags and cut ends)
chain: MDSLTEQRLTSPNLPAPHLEHYSVLHCTMTLDVQTVVVFAVIVVLLLVNVILMFFLGTR
notes: Expressed from a pcDNA3 FLAG vector in HEK 293 T cells; also called uORF44 protein; mental activity-related protein
binds: all assays above
